Experimental data: US20140274782A1, “AFFINITY REAGENTS AND METHODS FOR DETECTION, PURIFICATION, AND PROTEOMIC ANALYSIS OF METHYLATED PROTEINS” (The Board of Trustees of the Leland Stanford Junior …, priority 2013, published 2014)

Assays:
Assay in all cases: ProtoArray, G9a array SNR minus GST array SNR
[1] = biological target: PHF20L1, G9a-methylated (human) (UniProt A8MW92)
[2] = biological target: CA13, G9a-methylated (human) (UniProt Q8N1Q1)
[3] = biological target: SH3YL1 (hit 65), G9a-methylated (human) (UniProt Q96HL8)
SH3YL1 (hit 65), G9a-methylated (human), sequence (Q96HL8 whole entry): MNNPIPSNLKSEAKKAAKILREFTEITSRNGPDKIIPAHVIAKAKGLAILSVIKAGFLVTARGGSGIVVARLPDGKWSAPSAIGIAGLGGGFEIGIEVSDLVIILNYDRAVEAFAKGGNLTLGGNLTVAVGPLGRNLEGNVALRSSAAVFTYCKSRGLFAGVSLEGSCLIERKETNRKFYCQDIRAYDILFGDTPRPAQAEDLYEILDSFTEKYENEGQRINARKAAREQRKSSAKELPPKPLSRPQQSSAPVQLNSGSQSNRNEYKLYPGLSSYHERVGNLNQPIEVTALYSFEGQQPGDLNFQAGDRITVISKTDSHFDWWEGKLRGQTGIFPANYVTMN

[4] = biological target: TMED5, G9a-methylated (human) (UniProt Q9Y3A6)
TMED5, G9a-methylated (human), sequence (Q9Y3A6 28-229 limits assumed): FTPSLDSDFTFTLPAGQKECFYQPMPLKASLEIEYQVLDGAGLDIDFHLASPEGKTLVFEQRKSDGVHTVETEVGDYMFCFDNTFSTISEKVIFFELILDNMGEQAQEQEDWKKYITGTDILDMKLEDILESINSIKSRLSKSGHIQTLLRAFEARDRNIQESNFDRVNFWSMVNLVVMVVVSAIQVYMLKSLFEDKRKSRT

[5] = biological target: C12orf23, G9a-methylated (human) (UniProt Q8WUH6)
[6] = biological target: SSR4, G9a-methylated (human) (UniProt P51571)
[7] = biological target: TMEM32, G9a-methylated (human) (UniProt Q8N4V1)
TMEM32, G9a-methylated (human), sequence (Q8N4V1 whole entry): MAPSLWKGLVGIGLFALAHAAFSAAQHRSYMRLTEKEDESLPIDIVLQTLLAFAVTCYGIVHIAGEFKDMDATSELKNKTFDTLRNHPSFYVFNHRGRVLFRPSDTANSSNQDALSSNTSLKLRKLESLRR

[8] = biological target: CRYZL1, G9a-methylated (human) (UniProt O95825)
CRYZL1, G9a-methylated (human), sequence (O95825 whole entry): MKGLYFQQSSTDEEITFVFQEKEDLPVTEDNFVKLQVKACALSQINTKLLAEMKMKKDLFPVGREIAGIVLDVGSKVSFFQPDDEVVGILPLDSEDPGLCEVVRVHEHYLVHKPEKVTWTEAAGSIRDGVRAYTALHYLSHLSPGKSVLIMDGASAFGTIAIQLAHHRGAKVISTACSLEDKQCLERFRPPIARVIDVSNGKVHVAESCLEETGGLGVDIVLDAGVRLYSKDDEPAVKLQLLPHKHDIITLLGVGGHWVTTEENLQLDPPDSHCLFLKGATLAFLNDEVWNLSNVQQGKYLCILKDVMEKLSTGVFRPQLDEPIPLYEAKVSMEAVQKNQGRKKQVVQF

[9] = biological target: UBE2S, G9a-methylated (human) (UniProt Q16763)
UBE2S, G9a-methylated (human), sequence (Q16763 whole entry): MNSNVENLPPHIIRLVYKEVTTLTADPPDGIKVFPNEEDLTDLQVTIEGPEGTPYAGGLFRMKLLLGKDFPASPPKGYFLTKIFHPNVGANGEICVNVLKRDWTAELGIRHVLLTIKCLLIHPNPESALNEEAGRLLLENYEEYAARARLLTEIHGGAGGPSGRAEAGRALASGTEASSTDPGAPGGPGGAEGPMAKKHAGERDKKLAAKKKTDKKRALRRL

[10] = biological target: SMYD3, G9a-methylated (human) (UniProt Q9H7B4)
SMYD3, G9a-methylated (human), sequence (Q9H7B4 whole entry): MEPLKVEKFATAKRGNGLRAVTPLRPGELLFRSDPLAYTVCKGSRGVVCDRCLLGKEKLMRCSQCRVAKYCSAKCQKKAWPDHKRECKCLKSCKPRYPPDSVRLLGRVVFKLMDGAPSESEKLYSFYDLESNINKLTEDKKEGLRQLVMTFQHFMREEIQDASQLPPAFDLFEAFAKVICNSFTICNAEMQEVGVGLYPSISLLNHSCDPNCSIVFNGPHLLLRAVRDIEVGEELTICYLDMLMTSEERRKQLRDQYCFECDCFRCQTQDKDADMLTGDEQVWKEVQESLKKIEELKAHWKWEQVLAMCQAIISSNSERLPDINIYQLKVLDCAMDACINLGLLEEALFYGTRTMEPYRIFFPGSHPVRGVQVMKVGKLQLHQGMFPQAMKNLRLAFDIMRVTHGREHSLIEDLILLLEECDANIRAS

[11] = biological target: ARL6IP1, G9a-methylated (human) (UniProt Q15041)
ARL6IP1, G9a-methylated (human), sequence (Q15041 whole entry): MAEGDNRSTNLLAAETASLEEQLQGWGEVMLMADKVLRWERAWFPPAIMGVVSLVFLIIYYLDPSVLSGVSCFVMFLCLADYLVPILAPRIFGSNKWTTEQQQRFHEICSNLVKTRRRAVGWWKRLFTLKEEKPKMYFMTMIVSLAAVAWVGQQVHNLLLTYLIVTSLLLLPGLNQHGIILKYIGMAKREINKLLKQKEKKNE

[12] = biological target: AP1S1, G9a-methylated (human) (UniProt P61966)
[13] = biological target: SERPINB2, G9a-methylated (human) (UniProt P05120)
SERPINB2, G9a-methylated (human), sequence (P05120 whole entry): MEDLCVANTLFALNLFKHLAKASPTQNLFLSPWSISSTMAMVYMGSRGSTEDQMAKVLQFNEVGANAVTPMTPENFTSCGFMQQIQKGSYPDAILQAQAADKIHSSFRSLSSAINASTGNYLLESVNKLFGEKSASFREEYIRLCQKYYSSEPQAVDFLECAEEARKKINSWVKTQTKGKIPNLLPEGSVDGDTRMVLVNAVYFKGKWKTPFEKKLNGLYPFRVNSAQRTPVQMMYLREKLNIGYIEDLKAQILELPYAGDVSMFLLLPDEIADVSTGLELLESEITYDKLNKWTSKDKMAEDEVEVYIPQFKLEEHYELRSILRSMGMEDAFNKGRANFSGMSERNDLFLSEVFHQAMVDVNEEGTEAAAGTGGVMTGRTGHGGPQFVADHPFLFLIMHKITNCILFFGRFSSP

[14] = biological target: HIC2, G9a-methylated (human) (UniProt Q96JB3)
[15] = biological target: RAB33B, G9a-methylated (human) (UniProt Q9H082)
RAB33B, G9a-methylated (human), sequence (Q9H082 whole entry): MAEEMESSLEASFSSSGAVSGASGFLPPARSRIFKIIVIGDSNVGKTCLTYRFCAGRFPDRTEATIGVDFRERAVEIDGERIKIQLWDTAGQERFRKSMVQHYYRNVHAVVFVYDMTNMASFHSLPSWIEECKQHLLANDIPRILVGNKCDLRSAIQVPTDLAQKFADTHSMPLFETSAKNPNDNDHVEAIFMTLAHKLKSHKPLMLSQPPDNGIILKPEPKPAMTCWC

[16] = biological target: GHRL, G9a-methylated (human) (UniProt Q9UBU3)
GHRL, G9a-methylated (human), sequence (Q9UBU3 24-117 limits assumed): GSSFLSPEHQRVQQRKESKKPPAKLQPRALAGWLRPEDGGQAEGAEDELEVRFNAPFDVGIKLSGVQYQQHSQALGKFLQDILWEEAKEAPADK

[17] = biological target: SCGB2A2, G9a-methylated (human) (UniProt Q13296)
SCGB2A2, G9a-methylated (human), sequence (Q13296 19-93 limits assumed): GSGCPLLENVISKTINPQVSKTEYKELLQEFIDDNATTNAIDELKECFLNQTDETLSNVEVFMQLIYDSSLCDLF

[18] = biological target: SMAP1, G9a-methylated (human) (UniProt Q8IYB5)
[19] = biological target: CDK5RAP3, G9a-methylated (human) (UniProt Q96JB5)
[20] = biological target: TCTA, G9a-methylated (human) (UniProt P57738)
TCTA, G9a-methylated (human), sequence (P57738 whole entry): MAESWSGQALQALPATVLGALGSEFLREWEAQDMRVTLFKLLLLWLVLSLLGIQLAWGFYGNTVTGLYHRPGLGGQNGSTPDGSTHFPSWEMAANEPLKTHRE

[21] = biological target: LARP6, G9a-methylated (human) (UniProt Q9BRS8)
[22] = biological target: FTH1 (hit 109), G9a-methylated (human) (UniProt P02794)
FTH1 (hit 109), G9a-methylated (human), sequence (P02794 whole entry): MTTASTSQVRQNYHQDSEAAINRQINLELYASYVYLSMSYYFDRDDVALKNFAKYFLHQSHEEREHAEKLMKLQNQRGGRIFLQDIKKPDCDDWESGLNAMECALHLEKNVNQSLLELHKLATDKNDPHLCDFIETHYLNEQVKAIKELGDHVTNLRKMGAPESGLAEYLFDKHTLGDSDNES

[23] = biological target: ZBP1, G9a-methylated (human) (UniProt Q9H171)
[24] = biological target: PPARG, G9a-methylated (human) (UniProt P37231)
PPARG, G9a-methylated (human), sequence (P37231 29-505 limits assumed): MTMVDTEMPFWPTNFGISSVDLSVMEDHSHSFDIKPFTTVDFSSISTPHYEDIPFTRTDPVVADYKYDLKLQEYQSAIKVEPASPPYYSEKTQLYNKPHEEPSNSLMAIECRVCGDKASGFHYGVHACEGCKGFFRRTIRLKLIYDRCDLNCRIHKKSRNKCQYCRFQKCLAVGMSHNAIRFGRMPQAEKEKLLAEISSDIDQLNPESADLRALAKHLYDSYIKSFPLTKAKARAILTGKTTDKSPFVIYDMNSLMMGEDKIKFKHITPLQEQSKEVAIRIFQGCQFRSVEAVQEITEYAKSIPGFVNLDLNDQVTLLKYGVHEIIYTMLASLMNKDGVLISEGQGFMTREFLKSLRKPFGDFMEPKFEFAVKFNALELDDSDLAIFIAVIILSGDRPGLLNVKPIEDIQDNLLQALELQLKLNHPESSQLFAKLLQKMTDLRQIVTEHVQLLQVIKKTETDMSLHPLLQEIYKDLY

[25] = biological target: YPEL5, G9a-methylated (human) (UniProt P62699)
YPEL5, G9a-methylated (human), sequence (P62699 whole entry): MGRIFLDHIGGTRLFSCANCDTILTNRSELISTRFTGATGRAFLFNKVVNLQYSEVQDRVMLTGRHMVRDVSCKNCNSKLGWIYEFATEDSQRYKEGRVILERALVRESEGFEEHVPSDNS

[26] = biological target: DYNC2LI1, G9a-methylated (human) (UniProt Q8TCX1)
[27] = biological target: CUTC, G9a-methylated (human) (UniProt Q9NTM9)
[28] = biological target: C10orf58, G9a-methylated (human) (UniProt Q9BRX8)
[29] = biological target: NME7, G9a-methylated (human) (UniProt Q9Y5B8)
[30] = biological target: PTCD2, G9a-methylated (human) (UniProt Q8WV60)
[31] = biological target: ZRANB1, G9a-methylated (human) (UniProt Q9UGI0)
[32] = biological target: MGC10433 (RNA-binding protein 42), G9a-methylated (human) (UniProt Q9BTD8)
[33] = biological target: HS3ST1, G9a-methylated (human) (UniProt O14792)
[34] = biological target: BHMT, G9a-methylated (human) (UniProt Q93088)
BHMT, G9a-methylated (human), sequence (Q93088 whole entry): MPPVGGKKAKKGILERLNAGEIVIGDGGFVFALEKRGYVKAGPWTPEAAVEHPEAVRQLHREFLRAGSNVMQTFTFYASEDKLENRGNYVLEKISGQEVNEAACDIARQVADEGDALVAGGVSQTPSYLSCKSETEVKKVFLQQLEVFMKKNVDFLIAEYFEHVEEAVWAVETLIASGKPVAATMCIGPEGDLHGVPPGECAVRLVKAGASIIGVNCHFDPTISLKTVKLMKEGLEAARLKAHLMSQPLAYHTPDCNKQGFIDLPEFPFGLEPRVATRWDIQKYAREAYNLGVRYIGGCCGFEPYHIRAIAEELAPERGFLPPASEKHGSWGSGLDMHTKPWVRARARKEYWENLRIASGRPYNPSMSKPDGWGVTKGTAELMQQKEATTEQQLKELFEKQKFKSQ

[35] = biological target: WDR45, G9a-methylated (human) (UniProt Q9Y484)
WDR45, G9a-methylated (human), sequence (Q9Y484 other isoform, or with tags, fused parts or gaps limits assumed): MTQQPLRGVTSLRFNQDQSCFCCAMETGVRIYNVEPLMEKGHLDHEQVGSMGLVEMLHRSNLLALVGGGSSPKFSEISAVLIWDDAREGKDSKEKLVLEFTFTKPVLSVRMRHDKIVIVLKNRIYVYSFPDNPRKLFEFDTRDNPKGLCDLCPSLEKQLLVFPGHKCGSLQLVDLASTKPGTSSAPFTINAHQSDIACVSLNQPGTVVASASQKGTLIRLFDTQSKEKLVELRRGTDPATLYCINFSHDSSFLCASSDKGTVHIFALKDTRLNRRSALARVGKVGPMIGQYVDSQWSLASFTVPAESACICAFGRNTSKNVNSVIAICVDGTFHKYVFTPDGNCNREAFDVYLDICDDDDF

[36] = biological target: C10orf83, G9a-methylated (human) (UniProt Q8NDC4)
C10orf83, G9a-methylated (human), sequence (Q8NDC4 whole entry): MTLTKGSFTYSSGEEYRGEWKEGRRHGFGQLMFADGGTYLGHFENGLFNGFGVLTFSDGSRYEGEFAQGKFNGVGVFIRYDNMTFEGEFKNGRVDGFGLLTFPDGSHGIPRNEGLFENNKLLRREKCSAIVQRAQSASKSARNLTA

[37] = biological target: GYPC, G9a-methylated (human) (UniProt P04921)
[38] = biological target: SNFT, G9a-methylated (human) (UniProt Q9NR55)
[39] = biological target: RTN1, G9a-methylated (human) (UniProt Q16799)
[40] = biological target: CCL24, G9a-methylated (human) (UniProt O00175)

CA13, G9a-methylated (human), sequence (Q8N1Q1 whole entry): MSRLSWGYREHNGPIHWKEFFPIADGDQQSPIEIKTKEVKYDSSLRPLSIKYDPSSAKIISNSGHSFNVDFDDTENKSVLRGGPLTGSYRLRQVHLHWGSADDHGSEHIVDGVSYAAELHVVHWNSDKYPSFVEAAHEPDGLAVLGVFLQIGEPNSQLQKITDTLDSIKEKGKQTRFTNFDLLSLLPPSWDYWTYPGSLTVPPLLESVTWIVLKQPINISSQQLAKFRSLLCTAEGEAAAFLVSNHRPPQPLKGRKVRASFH

## 3× Flag-3×MBT (designed binder)
[1]
  G9a-GST: 20.4
[2]
  G9a-GST: 12.2
[3]
  G9a-GST: 16.2
[4]
  G9a-GST: 15.5
[5]
  G9a-GST: 12.2
[6]
  G9a-GST: 13
[7]
  G9a-GST: 12.1
[8]
  G9a-GST: 12.6
[9]
  G9a-GST: 24.7
[10]
  G9a-GST: 16.3
[11]
  G9a-GST: 20.8
[12]
  G9a-GST: 15.4
[13]
  G9a-GST: 17.3
[14]
  G9a-GST: 16.1
[15]
  G9a-GST: 20.2
[16]
  G9a-GST: 24.1
[17]
  G9a-GST: 13.8
[18]
  G9a-GST: 20.2
[19]
  G9a-GST: 14.1
[20]
  G9a-GST: 15.2
[21]
  G9a-GST: 16.6
[22]
  G9a-GST: 37.9
[23]
  G9a-GST: 14
[24]
  G9a-GST: 13.3
[25]
  G9a-GST: 14.2
[26]
  G9a-GST: 12.4
[27]
  G9a-GST: 12.9
[28]
  G9a-GST: 16
[29]
  G9a-GST: 13.6
[30]
  G9a-GST: 18.7
[31]
  G9a-GST: 13.6
[32]
  G9a-GST: 14.5
[33]
  G9a-GST: 13.2
[34]
  G9a-GST: 15.2
[35]
  G9a-GST: 15.2
[36]
  G9a-GST: 14.6
[37]
  G9a-GST: 13.3
[38]
  G9a-GST: 17.1
[39]
  G9a-GST: 13.8
[40]
  G9a-GST: 34.4
